US20110151541

Target: gelatin

B1: recombinant stem bromelain (protein)
chain: SRDEPNDPMMKRFEEWMAEYGRVYKDDDEKMRRFQIFKNNVKHIETFNSRNENSYTLGINQFTDMTKSEFVAQYTGVSLPLNIEREPVVSFDDVNISAVPQSIDWRDYGAVNEVKNQNPCGSCWSFAAIATVEGIYKIKTGYLVSLSEQEVLDCAVSYGCKGGWVNKAYDFIISNNGVTTEENYPYLAYQGTCNANSFPNSAYITGYSYVRRNDERSMMYAVSNQPIAALIDASENFQYYNGGVFSGPCGTSLNHAITIIGYGQDSSGTKYWIVRNSWGSSWGEGGYVRMARGVSSSSGVCGIAMAPLFPTLQSGANAEVIKMVSET
Diameter of halo zones (mm), Average: 9 mm
Diameter of halo zones (mm), Plate 1: 8 mm
Diameter of halo zones (mm), Plate 2: 10 mm
Diameter of halo zones (mm), Plate 3: 9 mm
